From paper PMC13483453, “Ewing sarcoma breakpoint region 1 (EWSR1) protein binds to nonstructural protein 2 and non-coding regions of chikungunya virus genome to inhibit virus replication” come the findings set out here.

Data set [1] has as its target Recombinant histidine-tagged EWSR1 (Ewing sarcoma breakpoint region 1 protein) (UniProt Q01844). In words: BLI. (In general: In BLI a coated tip is dipped into the sample, and binding shifts an interference pattern.)
The target in data set [2] is T1, CHIKV nsP2 (Chikungunya virus, UniProt Q8JUX6 536-1333). In words: EMSA; polyIC. Conditions: protein: recombinant; tags: His6-SUMO removed. Background: Mobility shift assays separate free from complexed probe on a gel.
The target of data set [3] is T2, EWSR1 (UniProt Q01844 1-656). The data set is described as follows: EMSA; polyIC. The conditions noted are these: protein: recombinant; tags: N-terminal 6xHis (pET28a).
Data set [4] deals with T2, EWSR1. The data set is described as follows: BLI; 2:1 binding model. Conditions: protein: recombinant; tags: N-terminal 6xHis (pET28a).
Data set [5] has as its target T1, CHIKV nsP2. In words: EMSA; polyIC; figure description says weak. The conditions noted are these: protein: recombinant; tags: His6-SUMO removed.
The target of data set [6] is T1, CHIKV nsP2. The data set is described as follows: BLI; 2:1 binding model. The conditions noted are these: protein: recombinant; tags: His6-SUMO removed.
Data set [7] addresses T1, CHIKV nsP2. In words: EMSA. The conditions noted are these: protein: recombinant; tags: His6-SUMO removed.
For data set [8], the target named is T2, EWSR1. The data set is described as follows: EMSA. Conditions: protein: recombinant; tags: N-terminal 6xHis (pET28a).

T2 sequence (Q01844 whole entry): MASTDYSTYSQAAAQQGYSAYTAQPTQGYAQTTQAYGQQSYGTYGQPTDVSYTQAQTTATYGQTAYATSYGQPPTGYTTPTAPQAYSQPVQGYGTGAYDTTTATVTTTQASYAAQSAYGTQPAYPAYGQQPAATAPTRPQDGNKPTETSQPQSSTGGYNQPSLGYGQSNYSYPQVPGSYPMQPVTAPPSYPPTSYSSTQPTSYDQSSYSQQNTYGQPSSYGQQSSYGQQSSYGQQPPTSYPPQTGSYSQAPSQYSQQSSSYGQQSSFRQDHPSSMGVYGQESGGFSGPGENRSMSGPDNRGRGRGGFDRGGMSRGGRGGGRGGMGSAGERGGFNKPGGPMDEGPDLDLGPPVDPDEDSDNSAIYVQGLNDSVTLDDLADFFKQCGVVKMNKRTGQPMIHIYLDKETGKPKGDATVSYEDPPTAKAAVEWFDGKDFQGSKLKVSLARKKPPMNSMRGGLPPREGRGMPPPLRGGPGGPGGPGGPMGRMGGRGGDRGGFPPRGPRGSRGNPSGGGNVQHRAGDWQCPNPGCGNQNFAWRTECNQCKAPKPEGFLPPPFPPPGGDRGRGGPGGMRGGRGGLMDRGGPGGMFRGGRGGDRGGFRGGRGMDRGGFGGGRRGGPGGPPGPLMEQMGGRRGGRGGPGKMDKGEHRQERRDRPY
Chain of Recombinant histidine-tagged EWSR1 (Ewing sarcoma breakpoint region 1 protein) (Q01844 whole entry): as above

As a reminder, the Kd is the equilibrium constant for the complex coming apart. On to “Full-length CHIKV nsP2 protein (recombinant) (from UniProt Q8JUX6 536-1333) (enzyme)”, for which the Kd in data set [1] turned out to be 716 nM.
As to GUUUUUAAUAUUUC (ssRNA) [14-mer of 3NCR48], the binding result with CHIKV nsP2 [2] and in the data set with EWSR1 [3] was “binds” in each case.
As for UCUCUUGCUUUGCAGAGUAGAGCAGUAAGAAACUGGUAGGCUACGUGUGU (ssRNA) [5NCR-RC50], in the data set with EWSR1 [4], the Kd stood at 80.2 ± 0.39 nM. For the same molecule, the binding result with CHIKV nsP2 [5] was “binds”.
UCCGAACCCACAGGGACGUAGGAGAUGUUAUUUUGUUUUUAAUAUUUC (ssRNA) [3NCR48]: the Kd with CHIKV nsP2 [6] came out at 92.9 ± 1.6 nM; in the data set with EWSR1 [4] it was 91.4 ± 0.37 nM.
With GUGAUUCAGAGGUUUUUGACUUUAGUAAAUCGCCCAUCCUUUGAUAGA (ssRNA) [Random48], the binding result with CHIKV nsP2 [7] is recorded as “binds”; with EWSR1 [8], “no binding”.
